Series [1] deals with T1, IL-4 (Homo sapiens, UniProt P05112 P05112:25-153). Nature of the series: filter; group 2 stated to bind IL-4. To be noted: tags: R&D Systems.
Series [2] has as its target T2, TNF-alpha (Homo sapiens, UniProt P01375 P01375:77-233). Kind of series: competition; U937 cells. To be noted: tags: Genzyme or R&D Systems; chain copies: 3 inferred. As for the experimental part: (§1) A receptor binding competition assay was used to determine the bioactivity of the RNA ligands. ^125I labelled hTNFα at 0.1 nM was incubated in 50 µl of binding medium (PBS with 0.5 mM Mg^++, 0.2% BSA, 0.02% sodium azide, 1 U/µl RNasin) for 15 min at 4° C. with serially diluted competitors at 10^-4 to 10^-11 M, and 1×10^4/µl U937 cells. Duplicate aliquots were subsequently removed, centrifuged through 2:1 dibutyl-phthalate:dinonyl-phthalate mixture to separate free and bound ^125I labelled hTNFα, and the radioactivity in the pellet was measured on a gamma counter. Nonspecific binding was determined by inclusion of a 200-fold molar excess of unlabeled TNF.

Series [3] has as its target T2, TNF-alpha. Nature of the series: filter; class II. The settings on record: tags: Genzyme or R&D Systems; chain copies: 3 inferred.
Series [4] addresses T2, TNF-alpha. Kind of series: competition; U937 cells; 2'F version. To be noted: tags: Genzyme or R&D Systems; chain copies: 3 inferred. How it is done:
as §1

Series [5] has as its target T2, TNF-alpha. Kind of series: filter; 2'F version. To be noted: tags: Genzyme or R&D Systems; chain copies: 3 inferred.
The target of series [6] is T1, IL-4. Nature of the series: filter; full-length. To be noted: tags: R&D Systems.
The target in series [7] is T2, TNF-alpha. Kind of series: filter; class I. The settings on record: tags: Genzyme or R&D Systems; chain copies: 3 inferred.
Series [8] deals with T2, TNF-alpha. Kind of series: competition; U937 cells; 3 points. To be noted: tags: Genzyme or R&D Systems; chain copies: 3 inferred. How it is done: as §1
Series [9] concerns the target T3, IFN-gamma (Homo sapiens, UniProt P01579 P01579:24-161). Nature of the series: filter; truncate. The settings on record: tags: Genzyme (Cambridge MA); Upstate Biotechnology for early SELEX rounds; chain copies: 2 inferred.
Series [10] concerns the target T3, IFN-gamma. Kind of series: filter; full-length. The settings on record: tags: Genzyme (Cambridge MA); Upstate Biotechnology for early SELEX rounds; chain copies: 2 inferred. How it is done: The determination of equilibrium dissociation constants (Kds) for RNA pools was made subsequent to rounds 5, 8, 12, and 17 to monitor the progress of each SELEX. The Kds of RNA pools for mouse IFN-gamma (Genzyme Inc., Cambridge Mass.) were also determined after rounds 8 and 17. Kds were determined for individual ligands after cloning and sequencing of RNA pools and truncations (described below). Nitrocellulose filter binding was used to determine Kds as follows: filter discs were placed into a vacuum manifold and wetted with 5 ml of mPBS buffer. ^32P-labeled-RNA was incubated with serial dilutions of IFN-gamma in binding buffer for 5–10 min at 37° C. to allow binding to occur. […] The filter discs were dried and counted in a liquid scintillation counter (Beckmann Instruments, Palo Alto Calif.). Equilibrium dissociation constants were determined by least square fitting of the data points using the Kaleidagraph™ graphics program (Synergy Software, Reading Pa.). […] Biphasic binding constants were calculated according to standard procedures. Kds were determined by least square fitting of the data points using the Kaleidagraph™ graphics program.
The Kds of individual RNAs within each group were determined by nitrocellulose filter binding as described above. The Kds were determined using either a monophasic or biphasic least squares fit of the data.

What is called Ki is the equilibrium dissociation constant of an inhibitor or competing ligand from its target. Higher therefore signals a looser hold on the target. A word on the Kd: it is a measure of binding affinity in units of concentration.

T3 sequence (P01579 24-161, one chain of several): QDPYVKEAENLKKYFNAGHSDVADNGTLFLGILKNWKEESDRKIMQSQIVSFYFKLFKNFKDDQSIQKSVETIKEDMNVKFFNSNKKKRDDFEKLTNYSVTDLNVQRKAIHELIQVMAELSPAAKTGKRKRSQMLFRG
T1 sequence (P05112 25-153, one chain of several): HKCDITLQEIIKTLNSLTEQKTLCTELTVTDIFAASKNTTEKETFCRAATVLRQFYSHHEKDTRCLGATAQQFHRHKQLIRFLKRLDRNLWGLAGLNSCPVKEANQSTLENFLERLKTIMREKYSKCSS
T2 sequence (P01375 77-233, one chain of several): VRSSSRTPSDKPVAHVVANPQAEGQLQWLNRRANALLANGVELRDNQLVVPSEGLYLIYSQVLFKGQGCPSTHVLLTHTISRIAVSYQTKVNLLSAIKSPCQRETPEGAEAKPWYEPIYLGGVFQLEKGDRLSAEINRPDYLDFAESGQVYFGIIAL

B1: IL-4 2'F/NH2-2 (ssRNA)
RNA: GGGAGACAAGAAUAAACGCUCAAGACGAACGACCAAGGGACGGGUGGGCAAAUAGGGAUGCCGUUCGACAGGAGGCUCACAACAGGC
modifications: 2'-F C, 2'-NH2 U
For the molecule B1, in the series with IL-4 [1], the binding result was “binds”.

B2: TNF 14C (ssRNA)
RNA: GGGAGCUCAGAAUAAACGCUCAACGGCUUGCAGGUCGCCGAAAUGACCGCACAUUCGACAUGAGGCCCGGAUCCGGC
Take B2: the Ki with TNF-alpha [2] worked out at 0.93 µM. In the series with TNF-alpha [3], this molecule gave a Kd of 0.06 µM.

B3: TNF 14C 2'F (ssRNA)
RNA: GGGAGCUCAGAAUAAACGCUCAACGGCUUGCAGGUCGCCGAAAUGACCGCACAUUCGACAUGAGGCCCGGAUCCGGC
modifications: 2'-F all C and U
The molecule B3 yielded a Ki in the series with TNF-alpha [4] of 11.5 µM. Further, binding with TNF-alpha [5] was put at a Kd of 0.133 µM.

B4: TNF 4A (ssRNA)
RNA: GGGAGCUCAGAAUAAACGCUCAACGCACUCGGACGGAAUCUCCGUAGGACACGUUCGACAUGAGGCCCGGAUCCGGC
For B4, binding in the series with TNF-alpha [3] was characterised by a dissociation constant (Kd) of 0.32 µM.

B5: TNF 4A 2'F (ssRNA)
RNA: GGGAGCUCAGAAUAAACGCUCAACGCACUCGGACGGAAUCUCCGUAGGACACGUUCGACAUGAGGCCCGGAUCCGGC
modifications: 2'-F all C and U
In the series with TNF-alpha [5], B5 yielded a Kd of 0.178 µM.

B6: IL-4 2'F/NH2-43 (ssRNA)
RNA: GGGAGACAAGAAUAAACGCUCAACAACGCUGACCAUGGGAGGAAUGUGGGAAGGGCGCCAGCGUUCGACAGGAGGCUCACAACAGGC
modifications: 2'-F C, 2'-NH2 U
Turning to B6, the binding result with IL-4 [1] is on record as “binds”.

B7: IL-4 2'NH2-29 (ssRNA)
RNA: GGGAGACAAGAAUAAACGCUCAAGAGCUGGUGAGCCACGUAUACGGCCUUAGGGGCUUGGGCGUUCGACAGGAGGCUCACAACAGGC
modifications: 2'-NH2 all C and U
Regarding B7, binding with IL-4 [6] was characterised by a dissociation constant (Kd) of 0.0083 µM.

B8: IL-4 2'F/NH2-14 (ssRNA)
RNA: GGGAGACAAGAAUAAACGCUCAACAGCCAAGGGUUGGAUAGGGGGUAGGGAGCCGUAGCAGCGUUCGACAGGAGGCUCACAACAGGC
modifications: 2'-F C, 2'-NH2 U
Consider B8, for which, in the series with IL-4 [1], the binding result is on record as “binds”.

B9: IL-4 2'F/NH2-16 (ssRNA)
RNA: GGGAGACAAGAAUAAACGCUCAAGGUACGACCAAGGAAUGUGGGUGGAAGAGGGCGCCGUACCUUCGACAGGAGGCUCACAACAGGC
modifications: 2'-F C, 2'-NH2 U
Regarding B9, the binding result with IL-4 [1] is on record as “binds”.

B10: IL-4 2'F/NH2-11 (ssRNA)
RNA: GGGAGACAAGAAUAAACGCUCAAGGUACGACCAAGGAAUGUGGGUGGAAGAGGGUGCCGUACCUUCGACAGGAGGCUCACAACAGGC
modifications: 2'-F C, 2'-NH2 U
In the case of B10, the binding result in the series with IL-4 [1] is given as “binds”.

B11: TNF 23A (ssRNA)
RNA: GGGAGCUCAGAAUAAACGCUCAACCUCAUCCUCGCACGCCAUCGCCUGAACCGUUCGACAUGAGGCCCGGAUCCGGC
In the series with TNF-alpha [7], B11 yielded a Kd of 0.052 µM. Further, the inhibition constant (Ki) in the series with TNF-alpha [8] was roughly 0.241 µM.

B12: TNF 23A 2'F (ssRNA)
RNA: GGGAGCUCAGAAUAAACGCUCAACCUCAUCCUCGCACGCCAUCGCCUGAACCGUUCGACAUGAGGCCCGGAUCCGGC
modifications: 2'-F all C and U
As for B12, the affinity with TNF-alpha [4], expressed as Ki, was 14.7 µM. Also, in the series with TNF-alpha [5], the Kd worked out at 0.4 µM.

B13: TNF 4C (ssRNA)
RNA: GGGAGCUCAGAAUAAACGCUCAACUAGGCCCACCGUCCCUUCUAACAACGUCUUCGACAUGAGGCCCGGAUCCGGC
In the series with TNF-alpha [7], B13 came in with a Kd of 0.092 µM. In the series with TNF-alpha [2], this molecule returned an inhibition constant (Ki) of 1.2 µM.

B14: TNF 9C 2'F (ssRNA)
RNA: GGGAGCUCAGAAUAAACGCUCAAAUGGUGGAGGCCAUCUCAAACCCACGACACUUCGACAUGAGGCCCGGAUCCGGC
modifications: 2'-F all C and U
The molecule B14 returned a Kd with TNF-alpha [5] of 0.4 µM.

B15: TNF 25A 2'F (ssRNA)
RNA: GGGAGCUCAGAAUAAACGCUCAAGGCCGCAUGCCCCUCCUAACAGCAUGCAACUUCGACAUGAGGCCCGGAUCCGGC
modifications: 2'-F all C and U
As to B15, binding with TNF-alpha [5] was characterised by a dissociation constant (Kd) of 0.445 µM.

B16: TNF 3A 2'F (ssRNA)
RNA: GGGAGCUCAGAAUAAACGCUCAAGAUCGACGCAUCGAGUCGCCUCAUCGCUCCUUCGACAUGAGGCCCGGAUCCGGC
modifications: 2'-F all C and U
B16: the Kd with TNF-alpha [5] came to 0.623 µM.

B17: IL-4 2'F-12 (ssRNA)
RNA: GGGAGACAAGAAUAAACGCUCAAGUCUGACUAUUGGGGCGCCACAAUAUCAACGGCUGUACUUCGACAGGAGGCUCACAACAGGC
modifications: 2'-F all C and U
Molecule B17 yielded a Kd with IL-4 [6] of 0.03 µM.

B18: IL-4 2'F/NH2-28 (ssRNA)
RNA: GGGAGACAAGAAUAAACGCUCAAGAUCCUGCGACGCCAGGGGUGGAUAGGGGGAAGGGAGCGGUUCGACAGGAGGCUCACAACAGGC
modifications: 2'-F all C, 2'-NH2 all U
With B18, the Kd in the series with IL-4 [6] was 0.0087 µM.

In the case of GGGAGGACGAUGCGGAGGGUUGGGAGGGGUCCUUCUU (ssRNA, 2'-F all C and U) [IFN-gamma 2'F-28 truncate], in the series with IFN-gamma [9], the affinity, expressed as Kd, was 0.053 µM.

B19: TNF 7C 2'F (ssRNA)
RNA: GGGAGCUCAGAAUAAACGCUCAACAGGUGGCACCGCCCUUCCAACACGGUGCGUUCGACAUGAGGCCCGGAUCCGGC
modifications: 2'-F all C and U
In the case of B19, in the series with TNF-alpha [5], the affinity, expressed as Kd, was 0.442 µM.

B20: IL-4 2'F-21 (ssRNA)
RNA: GGGAGACAAGAAUAAACGCUCAAAGGAGCGCCAUGAAGCAAAGGGAGGAUUGUGGUGGAAGGCUUCGACAGGAGGCUCACAACAGGC
modifications: 2'-F all C and U
In the series with IL-4 [6], B20 registered a Kd of 0.011 µM.

B21: IL-4 2'F/NH2-18 (ssRNA)
RNA: GGGAGACAAGAAUAAACGCUCAACCGCCUGCGAUAGUUAGACCGUUGAGCUGAGAGCAACACUUUCGACAGGAGGCUCACAACAGGC
modifications: 2'-F all C, 2'-NH2 all U
In the case of B21, binding with IL-4 [6] was put at a Kd of 0.03 µM.

B22: TNF 16C (ssRNA)
RNA: GGGAGCUCAGAAUAAACGCUCAACCUGGUGGUCGUGCGGCUGUCGCCUCAAGGUUCGACAUGAGGCCCGGAUCCGGC
The molecule B22 displayed a Kd in the series with TNF-alpha [7] of 0.2 µM. This molecule also displayed a Ki in the series with TNF-alpha [8] of roughly 0.313 µM.

B23: TNF 16C 2'F (ssRNA)
RNA: GGGAGCUCAGAAUAAACGCUCAACCUGGUGGUCGUGCGGCUGUCGCCUCAAGGUUCGACAUGAGGCCCGGAUCCGGC
modifications: 2'-F all C and U
The molecule B23 came in with an inhibition constant (Ki) in the series with TNF-alpha [4] of 9.19 µM. In the series with TNF-alpha [5], this molecule had a Kd of 0.123 µM.

B24: TNF 8C 2'F (ssRNA)
RNA: GGGAGCUCAGAAUAAACGCUCAAGUCCACACUUUGCCGAGCGUCCUAGUGUUCGACAUGAGGCCCGGAUCCGGC
modifications: 2'-F all C and U
B24: in the series with TNF-alpha [5], the Kd is 0.503 µM.

B25: TNF 6A (ssRNA)
RNA: GGGAGCUCAGAAUAAACGCUCAACCACUGGCUAGGAACUCGAGUACUGGGUGGUUCGACAUGAGGCCCGGAUCCGGC
The molecule B25 returned a Ki with TNF-alpha [2] of 9.1 µM. The affinity with TNF-alpha [3], expressed as Kd, was 0.12 µM.

B26: TNF 6A 2'F (ssRNA)
RNA: GGGAGCUCAGAAUAAACGCUCAACCACUGGCUAGGAACUCGAGUACUGGGUGGUUCGACAUGAGGCCCGGAUCCGGC
modifications: 2'-F all C and U
With B26, in the series with TNF-alpha [4], the Ki is 8.16 µM. The molecule also displayed a Kd in the series with TNF-alpha [5] of 0.074 µM. GGGAGGACGAUGCGGCAGGUAAUUACAUGAAGGUGGGUUAGGUA (ssRNA, 2'-NH2 all C and U) [IFN-gamma 2'NH2-30 truncate]: binding in the series with IFN-gamma [9] was characterised by a dissociation constant (Kd) of 0.011 µM.

B27: IL-4 2'F-18 (ssRNA)
RNA: GGGAGACAAGAAUAAACGCUCAAGCUGCCCAAGGAAUUUAACUUGGACCGCGAUCUGGAGUCUUCGACAGGAGGCUCACAACAGGC
modifications: 2'-F all C and U
The molecule B27 showed an equilibrium dissociation constant (Kd) with IL-4 [6] of 0.043 µM.

B28: IFN-gamma 2'F/NH2-3 (ssRNA)
RNA: GGGAGGACGAUGCGGUUCAGAGGGUAGGUAAGUGGGAGGAAAAAUGCCGUAUCGCCUCAGACGACUCGCCCGA
modifications: 2'-F all C, 2'-NH2 all U
Take B28: the Kd with IFN-gamma [10] came to 0.106 µM.
